From patent publication US12139542B2, “Inhibitors of aortic carboxypeptidase-like protein (ACLP)” (TRUSTEES OF BOSTON UNIVERSITY, priority 2014, dated 2024)

T1: TGFβ Receptor II (TβRII) (Mus musculus, UniProt Q62312)
T1 construct: contains the extracellular domain of mouse TβRII fused to the Fc domain of human IgG; purchased R&D
T1 sequence (Q62312 24-166 limits assumed): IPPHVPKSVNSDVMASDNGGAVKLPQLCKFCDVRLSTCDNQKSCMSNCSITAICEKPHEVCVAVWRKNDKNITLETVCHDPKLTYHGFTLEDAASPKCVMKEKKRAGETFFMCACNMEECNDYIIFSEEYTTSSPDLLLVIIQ

B1: C-terminal ACLP: recombinant C-terminal discoidin and carboxypeptidase domains of mouse ACLP, amino acids 374-1128 (protein)
chain: IKCPPIGMESHRIEDNQIRASSMLRHGLGAQRGRLNMQAGANEDDYYDGAWCAEDESQTQWIEVDTRRTTRFTGVITQGRDSSIHDDFVTTFFVGFSNDSQTWVMYTNGYEEMTFYGNVDKDTPVLSELPEPVVARFIRIYPLTWNGSLCMRLEVLGCPVTPVYSYYAQNEVVTTDSLDFRHHSYKDMRQLMKAVNEECPTITRTYSLGKSSRGLKIYAMEISDNPGDHELGEPEFRYTAGIHGNEVLGRELLLLLMQYLCQEYRDGNPRVRNLVQDTRIHLVPSLNPDGYEVAAQMGSEFGNWALGLWTEEGFDIFEDFPDLNSVLWAAEEKKWVPYRVPNNNLPIPERYLSPDATVSTEVRAIISWMEKNPFVLGANLNGGERLVSYPYDMARTPSQEQLLAEALAAARGEDDDGVSEAQETPDHAIFRWLAISFASAHLTMTEPYRGGCQAQDYTSGMGIVNGAKWNPRSGTFNDFSYLHTNCLELSVYLGCDKFPHESELPREWENNKEALLTFMEQVHRGIKGVVTDEQGIPIANATISVSGINHGVKTASGGDYWRILNPGEYRVTAHAEGYTSSAKICNVDYDIGATQCNFILARSNWKRIREILAMNGNRPILRVDPSRPMTPQQRRMQQRRLQYRLRMREQMRLRRLNSTAGPATSPTPALMPPPSPTPAITLRPWEVLPTTTAGWEESETETYTEVVTEFETEYGTDLEVEEIEEEEEEEEEEMDTGLTFPLTTVETYTVNFGDF
modifications: left off: small tags and cut ends
B2: rACLP: recombinant full length mouse ACLP (amino acids 26-1128), BM40 signal sequence, C-terminal myc-His tag, from AD293 cells (protein)
chain: QTVLTDDEIEEFLEGFLSELETQSPPREDDVEVQPLPEPTQRPRKSKAGGKQRADVEVPPEKNKDKEKKGKKDKGPKATKPLEGSTRPTKKPKEKPPKATKKPKEKPPKATKKPKEKPPKATKKPKEKPPKATKRPSAGKKFSTVAPLETLDRLLPSPSNPSAQELPQKRDTPFPNAWQGQGEETQVEAKQPRPEPEEETEMPTLDYNDQIEKEDYEDFEYIRRQKQPRPTPSRRRLWPERPEEKTEEPEERKEVEPPLKPLLPPDYGDSYVIPNYDDLDYYFPHPPPQKPDVGQEVDEEKEEMKKPKKEGSSPKEDTEDKWTVEKNKDHKGPRKGEELEEEWAPVEKIKCPPIGMESHRIEDNQIRASSMLRHGLGAQRGRLNMQAGANEDDYYDGAWCAEDESQTQWIEVDTRRTTRFTGVITQGRDSSIHDDFVTTFFVGFSNDSQTWVMYTNGYEEMTFYGNVDKDTPVLSELPEPVVARFIRIYPLTWNGSLCMRLEVLGCPVTPVYSYYAQNEVVTTDSLDFRHHSYKDMRQLMKAVNEECPTITRTYSLGKSSRGLKIYAMEISDNPGDHELGEPEFRYTAGIHGNEVLGRELLLLLMQYLCQEYRDGNPRVRNLVQDTRIHLVPSLNPDGYEVAAQMGSEFGNWALGLWTEEGFDIFEDFPDLNSVLWAAEEKKWVPYRVPNNNLPIPERYLSPDATVSTEVRAIISWMEKNPFVLGANLNGGERLVSYPYDMARTPSQEQLLAEALAAARGEDDDGVSEAQETPDHAIFRWLAISFASAHLTMTEPYRGGCQAQDYTSGMGIVNGAKWNPRSGTFNDFSYLHTNCLELSVYLGCDKFPHESELPREWENNKEALLTFMEQVHRGIKGVVTDEQGIPIANATISVSGINHGVKTASGGDYWRILNPGEYRVTAHAEGYTSSAKICNVDYDIGATQCNFILARSNWKRIREILAMNGNRPILRVDPSRPMTPQQRRMQQRRLQYRLRMREQMRLRRLNSTAGPATSPTPALMPPPSPTPAITLRPWEVLPTTTAGWEESETETYTEVVTEFETEYGTDLEVEEIEEEEEEEEEEMDTGLTFPLTTVETYTVNFGDF
modifications: left off: small tags and cut ends

How the values were obtained:
[1] = system: TGFβ signaling activity (PAI-1 promoter luciferase); assay: MLEC-TGFβ activity assay (PAI-1 promoter luciferase reporter); type: cell-based, mink; settings: MLEC-TGFβ cells, treated overnight in low serum media
Description: Cell Treatments. IMR90 human lung fibroblasts (ATCC) and AD293 cells (Stratagene) were grown in DMEM supplemented with 10% FBS and 1% penicillin/streptomycin and incubated in a 5% CO2 atmosphere at 37° C. Mink lung epithelial cells stably transfected with the plasminogen activator inhibitor 1 (PAI-1) reporter construct driving luciferase expression (MLEC-TGFβ) (2) were grown in DMEM supplemented with 10% FBS and 1% penicillin/streptomycin, maintained in 250 μg/ml G418, and incubated in a 5% CO2 atmosphere at 37° C. IMR90 cells and MLEC-TGFβ cells were generally treated for 30 min, 24 h, or 48 h in low serum media containing 0.5% FBS and 1% penicillin/streptomycin and incubated in a 5% CO2 atmosphere at 37° C. Cells were treated with 3.75 μg/ml (approximately 30 nM) rACLP (full length, Tsp, or C-terminal) or 1 nM TGFβ (R&D) (as a positive control), except where indicated. Cells treated for 30 min were serum starved in low serum media overnight preceding treatment. MLEC-TGFβ activity assay. To measure TGFβ signaling activity, 1×10^4 MLEC-TGFβ cells/well were plated on white 96-well cell culture treated plates and allowed to adhere overnight. […] Luciferase activity was measured on an auto-injecting BioTek Synergy HT plate reader using 50 μl of luciferase assay substrate (Promega).

[2] = system: Smad3 phosphorylation (canonical TGFβ signaling); assay: Smad3 phosphorylation in serum starved IMR90 fibroblasts (Western blot); type: cell-based, human; settings: for Smad3 phosphorylation: serum starved IMR90, ~30 nM protein, 30 min, low serum media
Description: (§1) IMR90 cells and MLEC-TGFβ cells were generally treated for 30 min, 24 h, or 48 h in low serum media containing 0.5% FBS and 1% penicillin/streptomycin and incubated in a 5% CO2 atmosphere at 37° C. Cells were treated with 3.75 μg/ml (approximately 30 nM) rACLP (full length, Tsp, or C-terminal) or 1 nM TGFβ (R&D) (as a positive control), except where indicated. Cells treated for 30 min were serum starved in low serum media overnight preceding treatment.
rACLP stimulates canonical TGFβ signaling (Published Tumelty et al JBC 2014). Because ACLP increases TGFβ signaling in a reporter assay, the role of ACLP in canonical TGFβ signaling was investigated in detail. In pulmonary fibroblasts, TGFβ promotes the phosphorylation of Smad3 which then binds to Smad4 and translocates into the nucleus to promote transcription of myofibroblast marker genes (4,5). Therefore, the effects of ACLP on Smad3 phosphorylation were measured. Serum starved IMR90 cells were treated with rACLP for 15, 30, 45, or 60 min, or 24 h (FIG. 3) (3).
Serum starved IMR90 human lung fibroblasts were treated with equivalent molar amounts (˜30 nM) of purified full-length, Tsp repeat domain, or C-terminal protein for 30 min in low serum media (FIG. 6).

[3] = system: Normal murine mammary gland epithelial cells (NMuMg); assay: EMT marker qPCR in NMuMg cells treated with rACLP; type: cell-based, mouse
Description: Normal murine mammary gland epithelial cells (NMuMg) were treated with rACLP (30 nM) or TGFβ (1 nM) and RNA was analyzed by qPCR after 48 hours.

[4] = system: IMR90 human lung fibroblast cells; assay: SMA and collagen I protein expression in IMR90 fibroblasts treated with recombinant ACLP proteins (Western blot); type: cell-based; settings: IMR90, low serum media, 3.75 μg/ml (~30 nM) protein, 48 h, vs control cells
Description: Cell Treatments. IMR90 human lung fibroblasts (ATCC) and AD293 cells (Stratagene) were grown in DMEM supplemented with 10% FBS and 1% penicillin/streptomycin and incubated in a 5% CO2 atmosphere at 37° C. Mink lung epithelial cells stably transfected with the plasminogen activator inhibitor 1 (PAI-1) reporter construct driving luciferase expression (MLEC-TGFβ) (2) were grown in DMEM supplemented with 10% FBS and 1% penicillin/streptomycin, maintained in 250 μg/ml G418, and incubated in a 5% CO2 atmosphere at 37° C.
as §1
Recombinant ACLP induces myofibroblast gene and protein expression. To further define the role of ACLP in the fibroblast to myofibroblast differentiation process, IMR90 human lung fibroblast cells were treated with rACLP. […] IMR90 cells were grown in media containing 3.75 μg/ml (30 nM) rACLP or 1 nM TGFβ as a positive control (FIG. 2A). […] These findings indicate that ACLP promotes the fibroblast to myofibroblast differentiation because it stimulates expression of SMA and collagen 1(3).
The N-terminal domain of ACLP promotes myofibroblast marker protein expression. Because the inventors discovered that the N-terminal Tsp motifs of ACLP (e.g. the PFD) is the domain responsible for promoting TGFβ signaling, the inventors next assessed which domain of ACLP is responsible for increased SMA and collagen I expression in lung myofibroblasts. IMR90 lung fibroblasts were treated in low serum media containing equal molar amounts of full-length protein, the pro-fibrotic domain (PFD) of ACLP, and C-terminal ACLP (˜30 nM) for 48 h (FIG. 7).

TGFβ Receptor II (TβRII) = molecular target: T1, TGFβ Receptor II (TβRII); assay: ACLP binding assay: biotinylated rACLP on streptavidin plate incubated with TβRII Fc; settings: immobilized rACLP vs control-coated wells, p<0.05
Description: ACLP binding assays. To determine if ACLP binds to TGFβ Receptor II (TORII), ACLP was biotinylated using an EZ-Link Sulfo-NHS-LC-Biotin kit (Thermo Scientific 21327) according to manufacturer's instructions. Briefly, rACLP (0.267 nM) was incubated with 20 fold molar excess of biotin for 30 min at room temperature. The protein was then dialyzed back into DPBS overnight. Biotinylated ACLP (1 μg/well) was immobilized on a PIERCE™ Streptavidin coated High-Binding Capacity Plate (Thermo-Scientific PI-15500) overnight at 4° C. in binding buffer made up of PBS with Mg^2+, Ca^2+, 0.1% BSA, and 0.05% Tween 20). The next day, the plates were washed with binding buffer, blocked with the same buffer containing 1% BSA at room temperature for 1 h, followed by incubation with increasing amounts of TβRII Fc (0, 10, 100, 1000 ng). Binding was detected with Human-IgG-HRP (GE Healthcare Life Sciences) followed by incubation with 3,3′,5,5′-Tetramethylbenzidine (TMB, eBioscience). The reaction was quenched with 2 M H2SO4 and absorbance at 450 nm was measured on the BioTek Synergy HT system.
ACLP binds to the TGFβ-receptor II. […] The TβRII Fc chimera contains the extracellular domain of mouse TβRII fused to the Fc domain of human IgG and has been used as a global inhibitor of TGFβ (6).

TGFβ = assay: ACLP interaction with TGFβ (cell-free binding assay; latent TGFβ activation; data not shown)

Molecule	amount that stimulated luciferase activity [1] [µg/mL]	Smad3 phosphorylation [2]	cellular morphology ([3]; ACLP treated cells, consistent with EMT)	epithelial marker occludin (qPCR) ([3]; NMuMg, rACLP 30 nM, 48 hours)	mesenchymal marker SMA (qPCR) ([3]; NMuMg, rACLP 30 nM, 48 hours)	mesenchymal marker Snail (qPCR) ([3]; NMuMg, rACLP 30 nM, 48 hours)	mesenchymal marker fibronectin (qPCR) ([3]; NMuMg, rACLP 30 nM, 48 hours)	SMA protein expression [4]	collagen protein expression [4]	SMA protein expression ([4]; listed as Full-length ACLP)	collagen protein expression ([4]; listed as Full-length ACLP)	binding to the TβRII Fc chimera (absorbance at 450 nm) (TGFβ Receptor II (TβRII))	time at which Smad3 phosphorylation was first detected ([2]; serum starved IMR90, 3.75 μg/ml rACLP) [min]	Smad3 phosphorylation, short-term treatment ([2]; serum starved IMR90, 3.75 μg/ml rACLP, 15-60 min)	Smad3 phosphorylation after 24 h ([2]; serum starved IMR90, 3.75 μg/ml rACLP, 24 h)	activation of latent TGFβ (TGFβ)	direct interaction with TGFβ (TGFβ; cell-free binding assay)
B1	> 25	did not	–	–	–	–	–	–	–	–	–	–	–	–	–	–	–
B2	–	stimulated Smad3 phosphorylation	change in cellular morphology	decreasing	enhanced	enhanced	enhanced	induced an increase	induced an increase	promoted an increase	promoted an increase	significantly more binding	15	stimulated Smad3 phosphorylation	not detectable	did not appear to	did not appear to directly interact
